In this assay the target is FLAG-Mfn2 (UniProt O95140). In words: co-IP.
UniProt O95140, sequence (O95140 whole entry): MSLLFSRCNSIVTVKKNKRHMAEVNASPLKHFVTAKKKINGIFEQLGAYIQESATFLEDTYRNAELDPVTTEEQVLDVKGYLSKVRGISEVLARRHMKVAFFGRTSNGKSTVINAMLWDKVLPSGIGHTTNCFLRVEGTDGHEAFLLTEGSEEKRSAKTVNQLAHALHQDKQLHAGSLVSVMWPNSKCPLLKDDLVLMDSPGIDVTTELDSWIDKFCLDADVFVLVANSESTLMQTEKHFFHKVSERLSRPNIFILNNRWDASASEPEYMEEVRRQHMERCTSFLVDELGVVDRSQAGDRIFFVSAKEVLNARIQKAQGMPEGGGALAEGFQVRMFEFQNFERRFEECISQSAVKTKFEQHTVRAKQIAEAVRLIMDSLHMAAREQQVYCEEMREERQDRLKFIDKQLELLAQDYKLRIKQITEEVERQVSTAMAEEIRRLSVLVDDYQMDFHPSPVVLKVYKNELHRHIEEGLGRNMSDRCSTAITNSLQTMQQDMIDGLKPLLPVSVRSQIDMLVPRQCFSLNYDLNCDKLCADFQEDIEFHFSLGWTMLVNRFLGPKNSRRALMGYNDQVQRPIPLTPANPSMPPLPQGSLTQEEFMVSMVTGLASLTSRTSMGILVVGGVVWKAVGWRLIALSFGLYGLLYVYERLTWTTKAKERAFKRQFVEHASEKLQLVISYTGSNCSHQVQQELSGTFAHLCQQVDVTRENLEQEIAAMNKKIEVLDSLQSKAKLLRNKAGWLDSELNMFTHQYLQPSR

GFP-Bcl-xL/Bax H5: the percent of GFP-Bcl-xL/Bax H5 bound to FLAG-Mfn2 came to 3%.

For the origin of these results see PMC2970747.
